Experimental data: US20050272653A1 (ACCELERON PHARMA, published 2005)

Molecular target: T1, BSA (bovine, UniProt P02769 25-607)
T1 construct: Control analyte in the BiaCore experiment
Assay: BiaCore CM5 chip, BMP3 pro-MuIgG2a amine coupled, BSA flowed over

T1 sequence (P02769 25-607 limits assumed): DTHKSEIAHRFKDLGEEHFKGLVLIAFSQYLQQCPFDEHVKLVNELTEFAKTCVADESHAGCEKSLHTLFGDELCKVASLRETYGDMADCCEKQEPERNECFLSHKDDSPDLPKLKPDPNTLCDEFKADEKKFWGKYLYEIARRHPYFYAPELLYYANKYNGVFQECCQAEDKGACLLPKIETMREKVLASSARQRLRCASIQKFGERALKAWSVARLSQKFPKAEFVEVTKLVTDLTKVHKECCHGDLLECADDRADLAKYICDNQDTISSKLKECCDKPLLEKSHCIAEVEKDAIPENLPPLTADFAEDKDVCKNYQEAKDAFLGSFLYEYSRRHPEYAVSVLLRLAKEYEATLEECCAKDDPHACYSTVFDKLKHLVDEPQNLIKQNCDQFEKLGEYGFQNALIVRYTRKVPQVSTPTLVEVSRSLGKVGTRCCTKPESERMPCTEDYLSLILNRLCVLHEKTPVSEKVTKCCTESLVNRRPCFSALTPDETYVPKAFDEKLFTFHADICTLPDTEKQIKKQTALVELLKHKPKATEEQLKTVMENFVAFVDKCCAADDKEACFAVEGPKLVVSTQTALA

B1: BMP3A propeptide-Murine IgG2a peptide Fc fusion protein (Fc fusion)
chain: ERPKPPFPELRKAVPGDRTAGGGPDSELQPQDKVSEHMLRLYDRYSTVQAARTPGSLEGGSQPWRPRLLREGNTVRSFRAAAAETLERKGLYIFNLTSLTKSENILSATLYFCIGELGNISLSCPVSGGCSHHAQRKHIQIDLSAWTLKFSRNQSQLLGHLSVDMAKSHRDIMSWLSKDITQFLRKAKENEEFLIGFNITSKGRQLPKRRLPFPEPYILVYANDAAISEPESVVSSLQGHRNFPTGTVPKWDSHIRAALSIERRKKRSTGVLLPLQNNELPGAEYQYKKDEVWEERKPYKTLQAQAPEKSKNKKKQRKGPHRKSQTLQFDEQTLKKARRK
notes: Expressed in HEK293 cells and purified on Protein A; highly glycosylated; also called BMP3 pro-MuIgG2a; BMP3 pro-MuIg2a; not shown: murine IgG2a Fc
binding result: no binding
